Results taken from the supplement of paper PMC10567573.

B1: MLH1 (parent)
chain: YNIATRRKALKNPSEEYGKILEVV

Variants of: B1
Assay: protein stability index of a GFP-peptide fusion (GPS, HEK-293T) (PSI 1-6); higher = more stable
Settings: c terminus: a fixed tail appended
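Further: lentivirally expressed fusions sorted by FACS into six bins by GFP to DsRed ratio, PSI derived from sequencing read proportions per bin multiplied by bin number.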

Variant	protein stability index
YLIATRRKALKNPSEEYGKILEVV [N2L]	1.9
YNIATRRKALKHPSEEYGKILEVV [N12H]	2.74
YNIATRRKALKNPSEEYGKNLEVV [I20N]	3.54
YNIATRRWALKNPSEEYGKILEVV [K8W]	1.94
YNIATRRKALKNPSEEYGAILEVV [K19A]	2.5
YNHATRRKALKNPSEEYGKILEVV [I3H]	2.69
YNIATRRKALKNPSEGYGKILEVV [E16G]	2.89
YNIATRRKALKNPSEEYGKILEFV [V23F]	2.1
YNIATRRKALKNPSEEYKKILEVV [G18K]	2.97
YNFATRRKALKNPSEEYGKILEVV [I3F]	2.85
YNIATRRKALKNPSESYGKILEVV [E16S]	2.71
YNIATTRKALKNPSEEYGKILEVV [R6T]	2.32
YNIATRHKALKNPSEEYGKILEVV [R7H]	2.69
YNIATRRKALKNPSEEYGKILEVF [V24F]	2.98
YNIATRRKALKNPSEEYGKQLEVV [I20Q]	3.8
YNIATRRKALKNPSEEYGKIDEVV [L21D]	4.42
YNIATRRKALKNPSEEYPKILEVV [G18P]	3.03
YNIATRDKALKNPSEEYGKILEVV [R7D]	2.84
YNIATRRKALKNPSEEYGKIWEVV [L21W]	2.34
YNIATRRKALKNPSWEYGKILEVV [E15W]	1.78
YNIHTRRKALKNPSEEYGKILEVV [A4H]	2.89
YRIATRRKALKNPSEEYGKILEVV [N2R]	2.5
YNIATRRKAIKNPSEEYGKILEVV [L10I]	3.22
YNIATRRKALWNPSEEYGKILEVV [K11W]	2.19

Variant	protein stability index
YNIATRRKALKWPSEEYGKILEVV [N12W]	1.94
YNIATRRKALKNPSEEYGKILHVV [E22H]	2.43
YNIATRRKALKNSSEEYGKILEVV [P13S]	3.05
YNIATRRKALKNPSEEYGKDLEVV [I20D]	4.34
YNIATRRKALKNPSEEYGKILEVN [V24N]	3.64
WNIATRRKALKNPSEEYGKILEVV [Y1W]	2.86
YNIATRRKALKVPSEEYGKILEVV [N12V]	1.98
YNIATRRKALKNPSEYYGKILEVV [E16Y]	1.88
YNIATRRKALKNWSEEYGKILEVV [P13W]	2.66
YNIATRRKALKNPSEEYGKRLEVV [I20R]	3.6
YNIATRRKALKNPSEEYGKILEVE [V24E]	3.98
YNIATRRKAVKNPSEEYGKILEVV [L10V]	3.07
YNIQTRRKALKNPSEEYGKILEVV [A4Q]	2.57
YNIATRRKALKNPSEEYGKINEVV [L21N]	4.33
YNIATRRKALKNPSEEYCKILEVV [G18C]	2.5
YNIATRRKALINPSEEYGKILEVV [K11I]	2.04
YNIATRRKALKNPSEEYGLILEVV [K19L]	1.63
YNIATRRKALKNPSEEYQKILEVV [G18Q]	2.7
YNIATRRKAMKNPSEEYGKILEVV [L10M]	2.86
VNIATRRKALKNPSEEYGKILEVV [Y1V]	2.76
YNIATRRKALKNPSEEYGKILEHV [V23H]	3.69
YNIATRRKALKNPSEEYRKILEVV [G18R]	2.4
YNIATRRKALKNPSEEYGKHLEVV [I20H]	3.59
